Measured values published in the NTF2 design screens of Basanta et al. (2020).

Assay: protease stability score; higher = more stable; yeast display proteolysis, trypsin and chymotrypsin;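 note: relative to predicted unfolded state with 0 unfolded-like and 1 meaning tenfold more protease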
For “DEEEKILLHLLNVILHLLKTGDEEMMTELMDPNMKIDNENHKSHGWEALKFVRDQIRIHSINIREQRVQGEFAILRVDVDVEWNGRRIRTEIELHFVFVNGRVKEVHIQVK”, the protease stability score was 1.02. For “DEAQEIVEFVFKILAEFQETGDEDSLKHLLDPNVRILQGNKELHGRDQNIKRLREELDRFGVDKFRVELRLEHVTIIDGRLHLDMRLNLDVNGVEIRLEVHFVLIKVDGQWSIHEVRFH”, the protease stability score was 1.61. Sequence “DHEFEDSKRATEETLHLIETGNEEKIRQLADPHVRIIIFINGRDIHLHGREELSRHISEMGVDHRRWTELRLFEGHAENDVKVNFNGREFKVIIFVRKVNGRWVIERLEVHVI” has a protease stability score of 2.25. “NDIEQIVREVLELIYHAIATGDWEHIYKNADPNVKYEQGDKEFHGREILSEMIVHIRLRDLELNRLHIVGDKVHIHGHFHMDINGRERLVKTEYIIRKVDGQWRLESLIIR” gave a protease stability score of 1.23. For “DEEEELSKIAIRIFLKTLETGDERTLSELMDPHARLVINGREYHGREEASKEWHKWVEHLRVRDIKISSVRINEHELILHEKFEVEVNGRNLKLDVLIIVVKVDGRWVLRTNTIN”, the protease stability score was 2.68. “DTDTHTVKEFIRALVESSRTGDEDLLRDFADPRMRIDIDGRIFHGRENALRWLSELRIEEVRIDHVTIVDGRLHVDVTYRGDINGQHTETRVILIILKVNGRWRMHYIEVR” gave a protease stability score of 1.55. “DEDEEDARRFLEILQHHMRTGDWDSLYRLLDPHVRLHIGDKHHHGREEIRKHLHHLRFKELENRHITVYDGRMHVHGRIQGKFDGRDDKYESEIVVLKVDGQWLIEEIHVK” gave a protease stability score of 2.06. “DDETEYAREASEMWVKLLITGDEEIREEYIDPHAKMDQGEYEYHGREQVSRFSKKLIDTMGVKHFDIKSIEIQGDKVILFMHEHFENRRVDLIFYSRKFDGRWHYRRMEVIHR” gave a protease stability score of 0.543. “DEDKEDLDDWFKRWEEALRTGDEKTLLRLMDPDTRLIFENHERHGMEEIFDMLHKHLNRVDHIHDFILRRDDSQGDKVRYDGQEDGIVDGVRDILKVIIYMIKIDGRWLMEELEFH” showed a protease stability score of 1.26. In the case of “DEEHEHAKRAVKKTLTDYYTGDEDSISDLADPNVIQDVGDKEYHGREEFLRSMHKIIKWLGVDHIEVHRVHLINGRVFSRLRLEVDGREVELIIIILKINGRWHWHSMRIIHR”, the protease stability score was 1.03. In the case of “SEEDEHAEHMLRLWLHAIETGDEKLLLELVDPHAKNDVNGVDLHGRHEVWRHVYEMLHKFKNIRWDITETRYIGDYVHIRGILRQGDKTHDIRIKVVSFNGRIKKVEIRIE”, the protease stability score was 2.48. “SEKEDIERKWAERTLETIETGDEHTRRELLDPHVRIIINGKDHHGREFAEEEWRRLGVDHFRTHEYEIQGNFLHVRGEMEIDGKRVEVILNFTIVDGRIKQIEMVYL” gave a protease stability score of 2.03. “SEEEEILRHILERFANVLHTGDFDWLSKMADPHVRFDVNGREFHGREEVIQAVRDWRERLGIKHLHVKDIRLQGDKMHLNGRMEFDGVIEDTRIIHQVVDGRLRSIEIRTK” gave a protease stability score of 0.16. For “SREDELREEFLRRILEVLRTGDFDEWKKYLDPDTRNDINGVDWVGRETAAHELERMYRHIRIKDTKVHDVRVQGDKVHIDVRVLIEFDGRERILETHIVVEKVDGRWHLKHVRFN”, the protease stability score was 1.62. Work on “SELKEEVDRWAKRFIHAVETGDEDTILKFMDPHVKSSVGEKVHHGREFLIIIWRELRIRHFTVHHIRVDEDHLIIHMEWQGHVNGKEIRLEVDLFIRKVDGVWIMKHIEIR” yielded a protease stability score of 2.03. Sequence “DEEDRRYEHWFKLFLEIFLTGDFDQWKKLLDPHVRVDVNGQERVGRDQISEAMRRLLEILGVDHIEVEEVHLQGEKVNLNTQENVNGVETHSRIHVIVINGRLRHSKMDIN” has a protease stability score of 1.29. “SEEEEEARKFSEDLIRSTRTGDEKAWNDLLDPDVRIDINGKTHHGREEFLKLLQHLRERADHWRIELKHTDVYDGKVHHDIHVQISVGDKTFHHRIHLIVVKIDGKWLLKRVDVR” gave a protease stability score of 2.16. For “DEHQERIEEVLRDILEVLETGDWRKWHRLMDPHVLLIIFINGRKLSFHGMETVISHLQHEWRRVKGLQFELKHVELQGDYIHIDGHVRFNGQQTRIEIRIDIVDGKIHQLEFKFD”, the protease stability score was 1.53. “SEMEKLYRDLYKRFLDNWVTGDEEKLIKYADPNTRLHVGDKHHHGMEHISHLFLEFVYRADHHEYRIDRLEVVDGVAISDGRMREEIGEFELRFDVEIRIVIVNGRLKWIEVSFK” gave a protease stability score of 0.839. “SEEERLMEEAMKEFVNNSLTGDFHKMSNLADPNTRIEIDGRELHGRELAEELWERIKNLTVEIKDYKVQGDKVIIYVKIHVNGREKDVILYVQKINGRWLLRHVEVR” showed a protease stability score of 1.34. Work on “DEDEENARKVSKKYKEIVLTGDEHALERLIDPNVRIDFNGKEFHGREDLSRLFHERFKRADHIEFDVKHINVQGNKVDLDVREIEIVGDKTHVHNVILHVLKIDGRWLIKEIRVH” yielded a protease stability score of 1.26. With “DEDEHLVRYLVEELIKFEQTGNEDEWNRLADPNVRIEINGVENHGREQYRKAFYEWRIHSLTVHHIRIDVQGEKALSIVDTETDGEYNGRQTRVKTNLIIHTKKVDGRWLVHSLVIKTE” the protease stability score was 1.25. Sequence “NEEEHTFEIAIRILREMWETGDEKLSQELADPNARLDIGDKHFHGRESLRHRVHEMRIEHTDIHSYHTINGRVHMDWRVDGFINGQRHDTRMHLDVIKIDGRWIIKNVEVK” has a protease stability score of 0.571. “DEEEEATEKFFEKLLRSWKTGDEKSYEELLDPHARSDINGKIFHGRDKLSQMLHEFLKRVKGITIHDVKVHDSRLIDGRAILDGRVDMKVGDKRFELNREVVTLKVDGRWILESEIVK” gave a protease stability score of 0.767. In the case of “DKEEHLVKILIEILHREWETGDEDSISRNADPNTRVDIGDKHFHGREDAMEVLKRMLHQFPNIKFHIEDMRIIGNFVEIDVVINWNGKDVKSHLVFFKINGRWLTRHVEIR”, the protease stability score was 1.32. In the case of “SEEEELATEIFRKWIELLETGDEHTFRELADPDYRLIILYGDFIINDIGRERAIERWKQHLKQFDHWEIIIDRERVVNGVVHVDGILVLRINGREHNRRVKIELFIFDGRMKEVDIHID”, the protease stability score was 2.6. Work on “DEEKEDNKHFLKIHREDLHTGNEDSLKRLADPNARIHIGDKDYHGWEFWLTLSRELGVDHMHLIIDHVDLQGEKARIEGELEFTVGDKKHRIKTRLILEKIDGVWVYKSVTIE” yielded a protease stability score of 1.04. “TERDEHIEEMTDEWIELLFTGDEESLKRLADPDMRVNFNGVEIHGMHNFMRWVLHVLEHWRIEVKIHHKEVQGDKIRVELKQNIHFNGRDIHRDNREHIFVVNGVNKHVILIYR” gave a protease stability score of 1.43. Sequence “DELRDEVRRWLTKLIEDHKTGDEKAMMELADPNVKVVIDGKELVGMELYEHFVRYWREHIRLTDLKIHDMRIQGDKVHAETRVEGNFNGKYRVIETRVLIVKINGRWFLKEIEID” has a protease stability score of 2.02. “DDYDHITELALREIERVLHTGDEEDLRRMIDPHVRIDIDGKDIHGWENLFKHIEEERRRFPNLQIDWELKDTRKQGDKIILHGQIHIQQGDKEIERDFTIKAVKINGQWIVKTFHIR” showed a protease stability score of 1.63. For “DEEDEITDRLAKLLQHAYHTGDWKLWLNLADPHVRVDFNGVEIHGREEITDWFRKHYRDLGVTRFEVHVHHIHNIGDKIVQETHLLVNGRTFRTEVTIIVINGRVKSEHVNLR”, the protease stability score was 0.848. For “SEEEEKAKKWLEEVLRAEETGDEEKLLELADPNVRWIFNGVDVIGRKHFERNIRESLEKIPNMRIEHFHLHRMETIDGRIDMETEEDGIINGRDIRTRRRIIVVKVDGRWIIKSVHLI”, the protease stability score was 0.637. Work on “SEDEEILREILEETNKALHTGDENHIRHLLDPHVRWHVGDKTIIGRDLLVDILRRMGVKHHEIRLRDMDHVGEKIRLEGELIIRYGDKTETHDVTFVLIKFDGRWHIEEYIHG” yielded a protease stability score of 0.866. In the case of “DEKDEKLLRFAHEIIELFLTGNEERFTELLDPRVKLDIDGKNAVGREETQRLWEEILHRIDVMHIRIHRYKAQGNKVILDGLIHIEVGDKNEERHSRLHIHVYDGKIKSIRLEYH”, the protease stability score was 2.08. With “DEDKEEIMEAIKEFLTNLQTGDEERLFELFDPHVRLKVNGQLYHGREDLVRHLSELGVKHWRLRSVEIQGEKAIMHGLVNVDGRSVRMIIEAEKVNGRWRMRHFESH” the protease stability score was 1.84. With “DEDTKHDEEMFRLVLHLLRTGDEEKLTELADPNVRLEVDIDGRRDTYHGREEMLKWLQELLKRYKNMTIKVHRVSVVNGKAHMDGITKVGDKEFKELRIWVVIDGKIRTIKIEIL” the protease stability score was 2.27. “TEEERIRRHAVELWVRSMRTGDEETSVDLADPRTKADINGVEIHGMEIVSKFFREMLEQYDVREFHIHSIDVIGDKVVTDMELILRVGDFENRTHIEFIVHKFDGKWRIEEIRLH” showed a protease stability score of 0.934. “DELTTLAREFLRLIKEVLETGDERTMHELADPNYRIRIGDKLVHGWEQQSELIIRIRTELGMTVKDSRIEDSHVQGDKLVVRVRLDMIQGDKKDSVDRIVRVDKINGKWIMSEIELI” gave a protease stability score of 1.49. In the case of “DEEEKKWKDMVHLWFHWHVTGDFEALYENFDPNARLEQTIDGKRIEVHGREVVKEFFHRLMEELGVDHIRIERRQIQGEKVHIRGTSIFNGKERDVHIDLVVIDGRFRSARIIFN”, the protease stability score was 1.39. Work on “DEKEHLLKLAIDILKHLHETGDETLAEELADPNTRVHYGDKHIHGRQRYIEHLHRERRRLGVDHSQIELHNWEVVDGRLHLDGKLTLLVGDKRIEFKVRIIMDKVNGRWILHSLEFH” yielded a protease stability score of 0.608. Work on “DEDWHKLEETMRRFAKAMLTGDEDDLRKLADPDYRLDVNGRDLHGMESVKHWLDELRLVINDVKVREVHVIDGRLYLDTQVHSIETINGVEIRFVTETHVVIRKIDGKWINREMSIK” yielded a protease stability score of 0.285. Sequence “TEDREEVRRWWKDLLRSLHTGDEEVLRKQIDPNVKLVDEDERSVGMDRFVKFMHFINREIRIERIHIKRLRLIDGQLEADTRMHVNIDGRIEETDVHILAKKVDGKWLLTSVILD” has a protease stability score of 1.48. “DELREHVEEVMRWFFERIKTGDEENFHKMADPDARLQVGDKNVHGRENVLKEWRRHREEIRIEDMKIRELHVIGNYAYLDIHVDITYNGKRKETRVELRVVVIDGRIEHIEIRIN” gave a protease stability score of 0.439. With “REDDERIDEMVELIFHWEQTGDEEKVYNNMDPHVRIDYNGRELHGWKKFTEELRLIYEEMRLKHIHISHQTIQGEKAIVHVELEGQVGDKRYIHRREIIVLKIDGKWIIKMVRFV” the protease stability score was 1.49. With “DDEIRFLFKIAHLWMRSHSTGDERVLEHLMDPHVRIDFNGVELHGWKDMLTEWKEIRIIIEHVEIDHYDVQGDKMELNGRISGTFHFNGRTRTTDFRSELRFTVINGKLHSVEIHYR” the protease stability score was 1.41. “DELELHAEEMYEIWIKLEETGDWEIMLELADPNTKVTWNGVRIHGMEHYLERHHREHRKIKNITTHFILRDIDVIGNKSHVDGEVEIRVNGKTIILRVHFDNVVIDGRFKSHRVIVK” showed a protease stability score of 1.03. In the case of “SEVEEWLRTLIHLIILAFRTGDEDQMRRNFDPNARVHVGDKDYHGRELFEEMMHHWRLHHIHIHDVRVQGDYVEADIKLDGEVNGKRFTTRVIIVFLKIDGKWQEKESEFV”, the protease stability score was 0.395. “DEEKEEYRRAIEDWIKFFITGDFDLLKTLADPNARSEIGNYEFHGMEHISRRIVDIIERFKNMRYSVHSIDFQGDYVILHSYIIYGDKHLHLIVITYKFNGRWRFHSVRVE” showed a protease stability score of 1.26. For “SEINERTERLMKWLLHAILTGDEDLLSTLADPNVRVIVGDKSVIGMESWYRLFEEELRHLGIKHMQLDPRHVDTQGDKARVETRLRVWVDGVELTHETRLHLDVVNGRITKISIRIH”, the protease stability score was 1.16. In the case of “SQEERTHRELLRLLLESLTTGDEDTLRHLMDPHMIIRIGDKHFHGWDWIVHLFRKLGADHMEVEIRDEDIIDGRIRHHGSLHIHVDGRTEHIETILFVEKVNGRWVIRSVEFR”, the protease stability score was 1.64.
